Article PMC3549490

Biological target: UNC-45 (C. elegans), full-length recombinant protein (C. elegans)
Experiment: ITC

Kd [µM] | Binder
14 | EDASRMEEVD [Hsp90 (DAF-21) C-terminal peptide …]
120 | AGGPTIEEVD [Hsp70 (HSP-1) C-terminal peptide …]
